Test results taken from US20080206139A1, “DELIVERY SYSTEM FOR DIAGNOSTIC AND THERAPEUTIC AGENTS” (The Penn State Research Foundation, priority 2006, published 2008).

Experiments:
U251 glioma cells = assay: Flow cytometry of intracellular doxorubicin fluorescence, with or without Pgp inhibitor cyclosporine A; assay type: cell-based, Human; conditions: 20 μM drug, 2 h
Experimental: Flow cytometry: Flow cytometry was used to measure total intracellular doxorubicin fluorescence. In this report we refer to fluorescence intensity as intracellular drug content. 1×10^6 cells were exposed to 20 μM of drug as (a) free DXR (b) DXR encapsulated IL13 conjugated liposomes (c) DXR encapsulated unconjugated liposomes for 2 h. All drug treatments and post treatment incubations were performed in complete growth medium. The cells were washed to remove any free adherent DXR using PBS and centrifuged. Cells were released from tissue culture dishes with 0.05% trypsin/0.02% EDTA followed by PBS washing (centrifugation, 5 min 500 g) and resuspended in PBS for flow cytometry assay. The intracellular accumulation of inherently fluorescent doxorubicin was evaluated using a fluorescence activated cell analyzer. A single 15 mW argon ion laser beam (488 nm) was used to excite the fluorescence of DXR. A total of 10000 cells were analyzed for each histogram. Experiments were repeated 3 times and the fluorescence intensities of DXR were expressed in arbitrary units.
Effect of Pgp inhibitor on the internalization of IL13 conjugated liposomes in the glioma cells: About 50000 U251 glioma cells were plated in a small petridish and were exposed to either IL13 conjugated liposomes carrying 20 μM of doxorubicin or the same concentration of free doxorubicin (20 μM) for 2 hours. […]

IL-13Rα2 = molecular target: T1, IL-13Rα2 (Homo sapiens, UniProt Q14627); assay: Cytotoxicity neutralization assay with IL-13 and its mutants against cytotoxin IL13-PE38QQR; assay type: cell-based; conditions: 100 ng/ml protein; cytotoxin IL13-PE38QQR fixed at 10 ng/ml
T1 sequence (Q14627 27-380): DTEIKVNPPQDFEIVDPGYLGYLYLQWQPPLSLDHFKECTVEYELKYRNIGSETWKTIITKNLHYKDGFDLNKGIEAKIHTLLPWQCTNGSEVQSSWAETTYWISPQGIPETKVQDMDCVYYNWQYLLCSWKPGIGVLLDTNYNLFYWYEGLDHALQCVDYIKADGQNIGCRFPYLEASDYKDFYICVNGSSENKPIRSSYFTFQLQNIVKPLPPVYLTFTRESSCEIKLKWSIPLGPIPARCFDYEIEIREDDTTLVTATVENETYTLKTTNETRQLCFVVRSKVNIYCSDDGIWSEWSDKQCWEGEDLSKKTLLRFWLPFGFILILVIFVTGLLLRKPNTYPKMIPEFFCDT
Experimental: Additionally, position K105 of this region of IL-13 is mutated into a variety of amino acids and the mutants' cytotoxic neutralization potential and binding affinity towards IL-13Rα2 is determined. […] In this titered cytotoxicity neutralization experiment, higher neutralization efficiency against the IL13-PE38QQR cytotoxin, for the mutant IL13.K105R is observed (Madhankumar A. B., Mintz, A., and Debinski, W. (2004) Neoplasia (New York) 6, 15-22). IL13.K105R is able to neutralize the cytotoxicity to 99% at 100 ng/ml concentration when compared with its blocking efficiency at 1000 ng/ml concentration. However, the wild type IL-13 and the mutant IL13.K106R and IL13.R109K have only 86.5%, 86.7% and 80.7% of the cytotoxicity neutralization efficiency with respect to their neutralization efficiency at 1000 ng/ml concentration. […] The high affinity mutant IL13.K105R is used as a ligand to conjugate to liposomes in order to better target the glioma associated IL-13Rα2 receptor.

Molecule | intracellular doxorubicin fluorescence (flow cytometry curve shift) (U251 glioma cells) | cytotoxicity neutralization efficiency with respect to neutralization efficiency at 1000 ng/ml (IL-13Rα2) [%]
COc1cccc2c1C(=O)c1c(O)c3c(c(O)c1C2=O)C[C@@](O)(C(=O)CO)C[C@@H]3O[C@H]1C[C@H](N)[C@H](O)[C@H](C)O1 [free DXR, doxorubicin] | increase in the cell fluorescence | 
IL13.K106R: mutant of IL-13 |  | 86.7
wild type IL-13: human cytokine interleukin-13, expressed in E. coli as His-tagged protein |  | 86.5
